Assay results as given in patent US20110318339A1 (FABRUS, published 2011).
Numbering of substitutions follows the chain as printed. Names and notes keep the numbering of the source.

B1: Fab VH5-51_IGHD5-18*01>3_IGHJ4*01 G100K/G104T G24T/S28R/G35V (H:KT TRV) & V3-4_IGLJ1*01 M94R/S96M (L:RM) (Fab, V domains shown)
VH: EVQLVQSGAEVKKPGESLKISCKTSGYRFTSYWIVWVRQMPGKGLEWMGIIYPGDSDTRYSPSFQGQVTISADKSISTAYLQWSSLKASDTAMYYCARRKYSYTYDYFDYWGQGTLVTVSS
VL: QTVVTQEPSFSVSPGGTVTLTCGLSSGSVSTSYYPSWYQQTPGQAPRTLIYSTNTRSSGVPDRFSGSILGNKAALTITGAQADDESDYYCVLYRGMGISYVFGTGTKVTVL
notes: Tested as Fab from E. coli (Plasmid A: CH1, His6, Flag; Plasmid E: CL lambda); also called H:KT TRV & L:RM; KT TRV / RM
B2: Fab VH5-51_IGHD5-18*01>3_IGHJ4*01 G100K/G104T G24T/S28R/G35V (H:KT TRV) & V3-4_IGLJ1*01 V91L/S96P S52G (L:LP S52G) (Fab, V domains shown)
VH: B1 VH
VL: B1 VL with S52G, V91L, R94M, M96P
notes: Tested as Fab from E. coli (Plasmid A: CH1, His6, Flag; Plasmid E: CL lambda); also called H:KT TRV & L:LP S52G
B3: Fab VH5-51_IGHD5-18*01>3_IGHJ4*01 G100K/G104T S28R (H:KT S28R) & V3-4_IGLJ1*01 (Fab, V domains shown)
VH: B1 VH with T24G, V35G
VL: B1 VL with R94M, M96S
notes: Tested as Fab from E. coli (Plasmid A: CH1, His6, Flag); Plasmid E: CL lambda; also called H:KT S28R & L:wt

What was measured:
[1] = biological target: T1, recombinant human DLL4 (Cat# 1506-D4/CF, R&D Systems) (human, UniProt Q9NR61 27-529); test: ELISA, hDLL4 coated 0.5 ng/ul, Fab 0.78 nM
T1 construct: Bought protein; also called hDLL4; h DLL4
Procedure: (§1) The plate was blocked by adding 1% BSA in Tris-buffered Saline Tween (TBST) and incubating for 1 hour at room temperature followed by washing 2 times with 150 μl TBST. A Fab antibody was serially diluted in 1% BSA in PBS. A 50 μl aliquot of each serial dilution was added, in triplicate, to each well and the plate was incubated for 1 hour at room temperature followed by washing 2 times with TBST. 50 μl of either goat anti-human kappa HRP conjugated secondary antibody (Cat # A7164-1 mL, Sigma-Aldrich) or goat anti-human lambda HRP conjugated secondary antibody (Cat # L1645-1 ml, Sigma-Aldrich), diluted 1:1000 in 1% BSA in PBS, was added to each well and the plate was incubated for 30 minutes at room temperature followed by washing 3 times with 200 μl TBST. Finally, 50 μl TMB one-component reagent (Cat # TMBW-1000-01, BioFax) was added and allowed to develop for 2 minutes at room temperature. The reaction was immediately halted by the addition of 50 μl 0.5M H₂SO₄ and the absorbance at 450 nm was measured using an ELISA plate reader.

[2] = biological target: T1, recombinant human DLL4 (Cat# …); test: ELISA, hDLL4 coated 0.5 ng/ul, Fab 1.56 nM
Procedure: as §1

[3] = biological target: T1, recombinant human DLL4 (Cat# …); test: ELISA, hDLL4 coated 0.5 ng/ul, Fab 3.13 nM
Procedure: as §1

[4] = biological target: T1, recombinant human DLL4 (Cat# …); test: ELISA, hDLL4 coated 0.5 ng/ul, Fab 6.25 nM
Procedure: as §1

[5] = biological target: T1, recombinant human DLL4 (Cat# …); test: ELISA, hDLL4 coated 0.5 ng/ul, Fab 12.50 nM
Procedure: as §1

[6] = biological target: T1, recombinant human DLL4 (Cat# …); test: ELISA, hDLL4 coated 0.5 ng/ul, Fab 25.00 nM
Procedure: as §1

[7] = biological target: T1, recombinant human DLL4 (Cat# …); test: ELISA, hDLL4 coated 0.5 ng/ul, Fab 50.00 nM
Procedure: as §1

[8] = biological target: T1, recombinant human DLL4 (Cat# …); test: ELISA, hDLL4 coated 0.5 ng/ul, Fab 100.00 nM
Procedure: as §1

[9] = biological target: T2, full-length human DLL4 expressed on the surface of CHO cells (human, UniProt Q9NR61 26-685); test: flow cytometry competition, 250 nM biotinylated Notch-Fc as competitor, Fab 2 nM
T2 construct: also called CHO-DLL4; DLL4-expressing CHO cells
Procedure: (§2) Streptavidin-PE was used as a detection molecule.
(§3) Fab was 5-fold serially diluted in 2% BSA/PBS from a starting concentration of 50 nM. […] PE-labeled streptavidin (Cat# 21627, Pierce-Thermo Scientific) was then added to a final dilution of 1:5 followed by incubation for 10 minutes at room temperature. The cells were then washed twice in 2% BSA/PBS and analyzed by flow cytometry on a BD FACSAria.

[10] = biological target: T2, full-length human DLL4 expressed on the …; test: flow cytometry competition, 250 nM biotinylated Notch-Fc as competitor, Fab 10 nM
Procedure: as §2, §3

[11] = biological target: T2, full-length human DLL4 expressed on the …; test: flow cytometry competition, 250 nM biotinylated Notch-Fc as competitor, Fab 50 nM
Procedure: as §2, §3

Row | Binder | ELISA absorbance at 450 nm [1] | ELISA absorbance at 450 nm [2] | ELISA absorbance at 450 nm [3] | ELISA absorbance at 450 nm [4] | ELISA absorbance at 450 nm [5] | ELISA absorbance at 450 nm [6] | ELISA absorbance at 450 nm [7] | ELISA absorbance at 450 nm [8] | signal of Notch-Fc bound to CHO-DLL4 (streptavidin-PE) [9] | signal of Notch-Fc bound to CHO-DLL4 (streptavidin-PE) [10] | signal of Notch-Fc bound to CHO-DLL4 (streptavidin-PE) [11]
1 | B1 | 0.145 A450 | 0.148 A450 | 0.167 A450 | 0.229 A450 | 0.294 A450 | 0.421 A450 | 0.661 A450 | 1.07 A450 |  |  | 
2 | B2 |  |  |  |  |  |  |  |  | 250 | 190 | 105
3 | B3 | 0.138 A450 | 0.148 A450 | 0.164 A450 | 0.203 A450 | 0.226 A450 | 0.333 A450 | 0.524 A450 | 0.67 A450 |  |  | 
